Square brackets hold non-standard residues; d marks the D form. Ends that are not written are not given here. pY = N[C@@H](Cc1ccc(OP(=O)(O)O)cc1)C(=O)O; pT = C[C@@H](OP(=O)(O)O)[C@H](N)C(=O)O; pS = N[C@@H](COP(=O)(O)O)C(=O)O

For the assay, the target named is T1, tandem SH2 domain of C. glabrata Spt6 (Spt6-tSH2) (C. glabrata, UniProt Q6FLB1 1250-1444).
T1 sequence (looked up): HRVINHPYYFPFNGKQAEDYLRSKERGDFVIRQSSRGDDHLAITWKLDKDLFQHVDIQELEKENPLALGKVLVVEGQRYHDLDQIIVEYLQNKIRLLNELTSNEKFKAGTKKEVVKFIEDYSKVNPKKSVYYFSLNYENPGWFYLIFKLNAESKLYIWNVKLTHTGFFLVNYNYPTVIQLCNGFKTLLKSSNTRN
Put plainly: fluorescence polarisation. In general terms: Polarisation of emitted light reports the rotation of a fluorescent probe.

The Kd is the constant that tells how readily two partners part at equilibrium. Lower therefore signals higher affinity. Molecule {5,6‑FAM}-PSYSP[pT]SPSYSP[pT]SPS [(pT4-CTD)2] displayed a Kd of 7.2 µM.
On to {5,6‑FAM}-PS[pY]SPTSPS [(pY1-CTD)1], for which the Kd was 38.7 µM.
In the case of DDDEDGYNPYTL [Nrd1 Interaction Motif (NIM) peptide from Trf4] it was 3.3 µM.
In the case of {5,6‑FAM}-PSY[pS]P[pT]SPSYSPTSPS [PS(YpSPpTSPS)(YSPTSPS)] it was 5.7 µM; in that of {5,6‑FAM}-PSYSPTSPS[pY]SPTSPS [PS(YSPTSPS)(pYSPTSPS)], 36.8 µM; in that of {5,6‑FAM}-PS[pY]SPTSPSYSPTSPS [PS(pYSPTSPS)(YSPTSPS)], 45.4 µM.
In the case of {5,6‑FAM}-PS[pY]SPT[pS]PS[pY]SPT[pS]PS [(pY1pS5-CTD)2], the dissociation constant (Kd) was 0.3 µM.
Molecule {5,6‑FAM}-PS[pY][pS]PTSPS[pY][pS]PTSPS [(pY1pS2-CTD)2] gave a Kd of 0.3 µM.

These data come from PMC7327521 (Journal of Molecular Biology, 2020).
